This note sets out measurements from PMC3629964.

The assay concerns the target NH2-terminal-PEGylated HZ-TRAIL monomer (human) (UniProt P50591). Put plainly: SEC + other: quantitative Western blot.

In general, stoichiometry N refers to the number of molecules, sites or subunits per partner or assembly. Turning to “6xHis-ILZ-hTRAIL(114-281) (from UniProt P50591 114-281) (ligand)”, the stoichiometry N worked out at 2.
